Positions of bridges follow the written chain, without caps; N, C: chain ends. No end group written: not given here.

Experiment [1] concerns the target T1, AMY3 receptor (heterodimeric complex of the calcitonin receptor and RAMP3) (UniProt P30988 25-474; O60896 24-148).
T1 construct: whole, on cells; also called amylin receptor subtype 3; amylin receptor 3 subtype
T1 sequence (looked up) 1: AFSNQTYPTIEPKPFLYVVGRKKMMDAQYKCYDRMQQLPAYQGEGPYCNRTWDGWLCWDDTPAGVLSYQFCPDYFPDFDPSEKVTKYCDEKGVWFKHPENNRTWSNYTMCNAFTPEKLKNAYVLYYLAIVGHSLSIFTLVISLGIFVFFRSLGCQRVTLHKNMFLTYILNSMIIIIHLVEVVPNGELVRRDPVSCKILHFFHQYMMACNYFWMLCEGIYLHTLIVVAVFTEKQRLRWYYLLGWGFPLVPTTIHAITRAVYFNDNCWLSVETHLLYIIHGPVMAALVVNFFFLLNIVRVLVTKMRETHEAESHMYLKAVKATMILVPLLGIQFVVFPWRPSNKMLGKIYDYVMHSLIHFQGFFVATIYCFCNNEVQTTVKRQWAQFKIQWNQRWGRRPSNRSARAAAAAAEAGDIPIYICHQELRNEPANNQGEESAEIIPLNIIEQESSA
T1 sequence (looked up) 2: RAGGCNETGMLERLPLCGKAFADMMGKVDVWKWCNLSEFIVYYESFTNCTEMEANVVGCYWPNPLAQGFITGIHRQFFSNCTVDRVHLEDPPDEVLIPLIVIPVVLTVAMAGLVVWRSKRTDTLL
The experiment in a line: flow cytometry, dose-dependent binding of Cy5-labelled peptide (0.5-10 µM) to AMY3-HEK cells. The method, then:
(§1) d) For flow cytometry studies, AMY3-293 cells were used to determine cell binding and uptake and binding of Cy5-AC253, and Cy5-cAC253 peptides. Cell were plated at a density of 1.5 ×10^5 cells/well and cultured overnight in 12-well plates at 37° C. Cy5 labelled peptides (5 μM) were added and incubated for 1 hour at 37° C. in serum free media. The culture media was discarded, and cell monolayers were washed with PBS containing 2 mM EDTA and 0.5% BSA adjusted to pH 7.4 at 37° C. Cells were washed again with cold buffer and incubated with 0.25% trypsin to remove cell surface-associated fluorophores. Cells were dispersed in FACS solution (10% FBS in PBS) and analyzed using a FACSCanto II flow cytometer (BD Biosciences, USA) selecting a detection window between 720 and 840 nm. Fluorescence histograms and dot plots were generated using the data were processed with FLOWJO software (Tree Star, Inc, USA). At least 10,000 gated events per sample were analyzed. The experiment was repeated with different peptide concentration ranging from 0.5-10 μM, and mean fluorescence intensity of peptides was extrapolated. To further study the cell uptake mechanism, cells were preincubated with cytochalasin D (cytoD, […]) for 30 minutes, and the experiment was repeated as above. […]
On the technique in general: In flow cytometry, cells or beads pass a laser one at a time.

For experiment [2], the target named is T1, AMY3 receptor (heterodimeric complex of …). The experiment in a line: flow cytometry, Cy5-labelled peptide 5 µM, AMY3-HEK cells; reference AC253. The method, then:
as §1

The target is the same in experiment [3]. The experiment in a line: flow cytometry, Cy5.5-labelled peptide 5 µM; wild type HEK293 against AMY3-HEK cells.
The target of experiment [4] is amylin receptor in mouse brain (mouse, UniProt Q60755 42-533). The experiment in a line: cell-based or functional assay.
The target of experiment [5] is T1, AMY3 receptor (heterodimeric complex of …). The experiment in a line: cell-based or functional assay.
In experiment [6] the target is T2, AMY1 receptor (heterodimeric complex of the calcitonin receptor and RAMP1) (UniProt P30988 25-474; O60894 27-148).
T2 construct: whole, on cells; also called amylin receptor subtype 1
The experiment in a line: flow cytometry cell uptake, AMY1 transfected cells; reference other fragments.

T2 sequence (O60894 27-148, one chain of several): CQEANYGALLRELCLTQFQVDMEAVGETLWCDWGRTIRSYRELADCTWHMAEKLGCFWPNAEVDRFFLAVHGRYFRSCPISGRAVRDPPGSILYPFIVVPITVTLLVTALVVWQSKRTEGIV
Sequence of amylin receptor in mouse brain (Q60755 42-533): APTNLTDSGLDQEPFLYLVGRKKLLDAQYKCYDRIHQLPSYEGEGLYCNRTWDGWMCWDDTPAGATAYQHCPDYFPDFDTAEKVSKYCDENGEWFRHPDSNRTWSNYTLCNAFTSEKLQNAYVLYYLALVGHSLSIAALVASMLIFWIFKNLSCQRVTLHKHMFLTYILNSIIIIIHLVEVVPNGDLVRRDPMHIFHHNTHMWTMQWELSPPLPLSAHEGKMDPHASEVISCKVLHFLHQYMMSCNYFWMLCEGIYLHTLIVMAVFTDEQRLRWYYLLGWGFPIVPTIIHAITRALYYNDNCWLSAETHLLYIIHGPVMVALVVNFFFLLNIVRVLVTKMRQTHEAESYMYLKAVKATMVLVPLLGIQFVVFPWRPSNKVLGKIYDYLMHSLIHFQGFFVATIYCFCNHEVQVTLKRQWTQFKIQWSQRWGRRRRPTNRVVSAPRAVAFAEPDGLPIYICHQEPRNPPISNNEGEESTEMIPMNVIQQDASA

B1: cyclized AC253 (peptide)
peptide: CLGRLSQELHRLQTYPRTNTGSNTYC-NH2
modifications: disulfide 1-26; also: flanking Cys said to be D-Cys in one passage
notes: AC253 with one cysteine added at each terminus, cyclized by a disulfide; cAMP assay used the unlabelled peptide; also called cAC253; cyclic AC253
One may read the Kd as the free concentration of one partner at which half of the binding sites on the other are occupied at equilibrium, for simple one-to-one binding. As to B1, in experiment [1], the Kd is 1450 nM. Further, the “fold binding and uptake compared to AC253” value in experiment [2] came out at 3 fold. Besides, the “fold decrease in binding and uptake in wild type HEK293 cells compared to AMY3-HEK cells” value in experiment [3] came to 10 fold. Further, the “reduction in brain fluorescence after ip injection of Cy5-cAC253 mixed with 5-fold excess of unlabeled cAC253 (in vivo competition, ex vivo NIRF imaging)” value in experiment [4] amounted to 75%. Moreover, in experiment [5], the “IC50 for inhibition of hAmylin evoked cAMP increase in AMY3-HEK cells” value is approximately 300 nM and the “fold potency versus AC253 in inhibiting AMY3 receptor activity (cAMP)” value stood at 3 fold.

B2: peptide fragment R10 of AC253 (peptide)
peptide: RLQTYPRTNTGS
modifications: not fully specified (N-terminus, C-terminus)
notes: 12-residue fragment of AC253
Take B2: the “fold increase in specific binding compared to other fragments” value in experiment [6] came to 3 fold.

B3: AC253 (peptide)
peptide: Ac-LGRLSQELHRLQTYPRTNTGSNTY-NH2
modifications: not fully specified; printed as Ac-LGRLSQELHRLQTYPRTNTGSNTY; also: labelled form for binding: Cy5/Cy5.5 on extra N-terminal beta-alanine spacer
notes: Synthetic 24-residue peptide; cAMP assay used the unlabelled peptide; also called linear AC253; Cy5-AC253
For B3, the “fold decrease in binding and uptake in wild type HEK293 cells compared to AMY3-HEK cells” value in experiment [3] turned out to be 10 fold. Besides, in experiment [5], the “IC50 for inhibition of hAmylin evoked cAMP increase in AMY3-HEK cells” value was approximately 850 nM.
